# Laboratory results reported in PMC7818446, “Enzymology of the pathway for ATP production by arginine breakdown” (The Febs Journal, 2020).
# T1: ArcB (ornithine transcarbamoylase, OTC) (Lactococcus lactis, UniProt P0C2U0)
# T1 construct: expressed in L. lactis NZ9000; hexamer (245 kDa)
# T1 sequence (P0C2U0 1-354): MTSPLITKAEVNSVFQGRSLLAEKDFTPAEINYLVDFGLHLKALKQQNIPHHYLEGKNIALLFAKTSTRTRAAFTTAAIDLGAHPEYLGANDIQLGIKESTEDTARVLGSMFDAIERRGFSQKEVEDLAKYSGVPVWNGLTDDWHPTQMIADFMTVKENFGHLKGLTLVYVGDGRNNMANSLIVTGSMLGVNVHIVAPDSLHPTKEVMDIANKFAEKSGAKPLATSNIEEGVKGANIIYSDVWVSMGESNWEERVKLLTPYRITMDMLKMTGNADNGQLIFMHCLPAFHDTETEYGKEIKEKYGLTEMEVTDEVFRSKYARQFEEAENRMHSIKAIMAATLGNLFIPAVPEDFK
# T2: ArcC1 (carbamate kinase, CK) (Lactococcus lactis, UniProt Q9CE16)
# T2 construct: expressed in L. lactis NZ9000; dimer (73 kDa)
# T2 sequence (Q9CE16 1-314): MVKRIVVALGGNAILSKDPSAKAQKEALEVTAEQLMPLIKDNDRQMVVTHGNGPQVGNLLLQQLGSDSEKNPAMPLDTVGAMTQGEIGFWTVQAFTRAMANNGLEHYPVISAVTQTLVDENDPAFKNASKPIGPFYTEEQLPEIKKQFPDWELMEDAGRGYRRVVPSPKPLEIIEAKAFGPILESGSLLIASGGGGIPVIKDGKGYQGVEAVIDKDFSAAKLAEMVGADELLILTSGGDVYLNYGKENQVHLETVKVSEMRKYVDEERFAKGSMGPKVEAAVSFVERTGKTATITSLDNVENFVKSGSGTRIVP
# T3: ArcA (arginine deiminase, ADI) (Lactococcus lactis, UniProt P58013)
# T3 construct: expressed in L. lactis NZ9000; tetramer (194 kDa)
# T3 sequence (P58013 1-410): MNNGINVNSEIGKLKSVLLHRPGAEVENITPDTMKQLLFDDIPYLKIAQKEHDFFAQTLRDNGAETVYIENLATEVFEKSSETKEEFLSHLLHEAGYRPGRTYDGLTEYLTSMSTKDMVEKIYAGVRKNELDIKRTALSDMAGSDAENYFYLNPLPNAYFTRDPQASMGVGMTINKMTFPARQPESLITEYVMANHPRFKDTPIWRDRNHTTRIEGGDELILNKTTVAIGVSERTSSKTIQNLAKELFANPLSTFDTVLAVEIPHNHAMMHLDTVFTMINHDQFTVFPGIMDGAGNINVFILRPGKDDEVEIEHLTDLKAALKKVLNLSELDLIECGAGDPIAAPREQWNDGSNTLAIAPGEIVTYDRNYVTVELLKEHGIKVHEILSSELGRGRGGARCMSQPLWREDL
# B1: ArcA (arginine deiminase, ADI) (Lactococcus lactis subsp. lactis Il1403) (protein)
# chain: T3 sequence (P58013 1-410)
# notes: expressed in L. lactis NZ9000; tetramer (194 kDa)
# B2: ArcD2 (arginine/ornithine antiporter, AOA) (Lactococcus lactis subsp. lactis Il1403) (protein)
# chain: MENKKTKGISLFALLAIIISGAIGGGVFNLANDLANGSTPGGVMISWLFIGFGIFMLVLSFNRLITIRPKLSGVSDYAREGFGDFIGFLSGWGYWISAWTGTIGFAVLMMTSADYFFPSKFANSNGSLTVLSVIIVSIISWILMFLVDRGVETAALVNAVVMIAKLIPLVVFSITGIILFKADVFTQHFWQTFTSNLAADGSVKSLVWHAMTAGGLLDQIKGSLMVMVWVFVGIEGAAMMGNRAKKKSDTAKATIIGLAVLLVIYVLLSLLPYGYMDQASLANVKAPGLVYILNEMVGGWGGSLMAIGLMISLLGAWLSWTMLPVEATQQLAEKKLLPSWFGKLNKYHAPSNSLLITQLMIQIFIIITYFVANAYNVFIYMATAVIMICYALVGAYLLKIGIKEGSIKNILIGFFTFAFQALALYLSGWQYVWLAMILYTIGFILFIKAKKESRQAISVKEWAGMFIVALLGVLAILVLICGAKSGTALDLRGLLGY
# notes: expressed in L. lactis JP9000; reconstituted in proteoliposomes; monomer (53 kDa) in DDM
# B3: ArcB (ornithine transcarbamoylase, OTC) (Lactococcus lactis subsp. lactis Il1403) (protein)
# chain: T1 sequence (P0C2U0 1-354)
# notes: expressed in L. lactis NZ9000; hexamer (245 kDa)
# B4: ArcC1 (carbamate kinase, CK) (Lactococcus lactis subsp. lactis Il1403) (protein)
# chain: T2 sequence (Q9CE16 1-314)
# notes: expressed in L. lactis NZ9000; dimer (73 kDa)
# Legend:
# [1] = target: T1, ArcB (ornithine transcarbamoylase, OTC); test: citrulline formation, COLDER assay (A540); assay type: biochemical; conditions: citrulline-forming direction; 5 mM carbamoyl-Pi; 50 mM KPi pH 7.0; 30 °C
# [2] = target: T2, ArcC1 (carbamate kinase, CK); test: ATP formation by ATPlite luminescence; assay type: biochemical; conditions: 5 mM carbamoyl-Pi, 5 mM Mg-ADP; 50 mM KPi pH 7.0; 30 °C
# [3] = target: T3, ArcA (arginine deiminase, ADI); test: citrulline formation, COLDER assay (A540); assay type: biochemical; conditions: read-out: % inhibition at 10 mM
# [4] = target: T2, ArcC1 (carbamate kinase, CK); test: ATP formation by ATPlite luminescence; assay type: biochemical; conditions: read-out: % inhibition at 10 mM
# [5] = target: T3, ArcA (arginine deiminase, ADI); test: citrulline formation, COLDER assay (A540); Michaelis-Menten with uncompetitive substrate inhibition; assay type: biochemical; conditions: 3.2 nM ArcA, 50 mM KPi pH 7.0, 30 °C, n = 1
# [6] = target: T1, ArcB (ornithine transcarbamoylase, OTC); test: citrulline formation, COLDER assay (A540); assay type: biochemical; conditions: read-out: % inhibition at 10 mM
# [7] = substrate: N=C(N)NCCC[C@H](N)C(=O)O; test: citrulline formation, COLDER assay (A540); assay type: biochemical, Lactococcus lactis; conditions: 50 mM KPi pH 7.0, 30 °C, 42 nM ArcA, arginine up to 480 µM
# purified protein [8] = substrate: NCCC[C@H](N)C(=O)O; test: purified protein; conditions: internal ornithine as counter-substrate, 25 µM external arginine, 50 mM KPi pH 7.0, 30 °C
# purified protein [9] = substrate: NC(=O)NCCC[C@H](N)C(=O)O; test: purified protein; assay type: biochemical, Lactococcus lactis; conditions: internal citrulline as counter-substrate, 25 µM external arginine, membrane potential −120 mV (valinomycin), pH 7.0, 30 °C
# purified protein [10] = substrate: N=C(N)NCCC[C@H](N)C(=O)O; test: purified protein; assay type: biochemical, Lactococcus lactis; conditions: external arginine, 10 mM internal ornithine, DOPE:DOPG:DOPC 50:38:12, 50 mM KPi pH 7.0, 30 °C, labelled compound
# [11] = substrate: NC(=O)OP(=O)(O)O; test: citrulline formation, COLDER assay (A540); assay type: biochemical, Lactococcus lactis; conditions: citrulline-forming direction, 5 mM ornithine, 50 mM KPi pH 7.0, 30 °C
# [12] = substrate: NC(=O)OP(=O)(O)O; test: ATP/ADP ratio by PercevalHR fluorescence, pH-corrected with pyranine; assay type: biochemical, Lactococcus lactis; conditions: 5 mM Mg-ADP, 50 mM KPi pH 7.0, 30 °C
# [13] = substrate: Nc1ncnc2c1ncn2[C@@H]1O[C@H](COP(=O)(O)OP(=O)(O)O)[C@@H](O)[C@H]1O; test: as above; assay type: biochemical, Lactococcus lactis; conditions: 5 mM carbamoyl-Pi, 50 mM KPi pH 7.0, 30 °C
molecule,measurement,setting,value
NCCC[C@H](N)C(=O)O [L-ornithine],Km,[1],700 ± 200 µM
same,% inhibition,[2],ornithine was slightly inhibitory
same,inhibition at 10000 µM,[3],30%
NC(=O)NCCC[C@H](N)C(=O)O [L-citrulline],inhibition at 10000 µM,[4],40 to 50%
N=C(N)NCCC[C@H](N)C(=O)O [L-arginine],K I,[5],3.2 ± 0.4 mM
same,inhibition at 10000 µM,[6],25%
B1,Km,[7],34.5 ± 6.6 µM
same,kcat,[7],3.3 ± 0.2 s⁻¹
B2,Km,purified protein [8],2500 ± 700 µM
same,kcat,purified protein [8],0.09 ± 0.009 s⁻¹
same,Km,purified protein [9],6000 ± 2100 µM
same,Km,purified protein [10],6.0 ± 0.7 µM
same,kcat,purified protein [10],0.11 ± 0.005 s⁻¹
B3,Km,[11],2700 ± 400 µM
same,kcat,[11],565 ± 45 s⁻¹
B4,Km,[12],600 ± 200 µM
same,kcat,[12],200 ± 20 s⁻¹
same,Km,[13],1600 ± 700 µM
same,kcat,[13],190 ± 15 s⁻¹
